Laboratory results: patent US20210147513A1

Key:
[1] = target: S1(349-590)-hFc (MERS-CoV; human); assay: BLI (Octet RED96), wild type RBD-hFc
[2] = target: hDPP4 Cells (human) (UniProt P27487); assay: FACS; settings: Fc fusion
Sequence of hDPP4 Cells (human) (P27487 whole entry, the tested form may be a part): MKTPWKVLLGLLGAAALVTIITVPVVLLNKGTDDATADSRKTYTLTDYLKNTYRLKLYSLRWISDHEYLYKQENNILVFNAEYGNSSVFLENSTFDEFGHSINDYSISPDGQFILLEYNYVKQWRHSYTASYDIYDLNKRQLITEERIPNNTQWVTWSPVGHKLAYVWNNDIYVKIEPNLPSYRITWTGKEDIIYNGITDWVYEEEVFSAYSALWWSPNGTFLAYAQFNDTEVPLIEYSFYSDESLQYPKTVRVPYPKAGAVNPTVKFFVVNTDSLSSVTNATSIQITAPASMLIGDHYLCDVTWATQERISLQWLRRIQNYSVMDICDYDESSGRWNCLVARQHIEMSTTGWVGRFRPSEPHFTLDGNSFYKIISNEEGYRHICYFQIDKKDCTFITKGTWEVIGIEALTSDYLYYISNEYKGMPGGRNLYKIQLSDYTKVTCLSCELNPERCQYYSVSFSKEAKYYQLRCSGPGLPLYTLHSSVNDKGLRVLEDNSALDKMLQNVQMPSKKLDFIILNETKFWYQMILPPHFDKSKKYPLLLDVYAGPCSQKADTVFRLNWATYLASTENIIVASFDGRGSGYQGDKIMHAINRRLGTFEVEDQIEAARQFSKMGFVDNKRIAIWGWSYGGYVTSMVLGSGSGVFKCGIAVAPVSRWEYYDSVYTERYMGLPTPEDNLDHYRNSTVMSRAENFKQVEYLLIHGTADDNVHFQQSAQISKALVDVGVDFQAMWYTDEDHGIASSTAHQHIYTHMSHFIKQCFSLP

Substance	Kd [1]	EC50 [2]
Recombinant soluble human DPP4 (from UniProt P27487 29-766) (receptor)	0.0214 µM	–
Wt. RBD	–	0.015 mg/L
